Patent US8173771B2, “Humanin receptor or humanin-like polypeptide receptor” (Keio Univeristy, priority 2005, dated 2012)
Ends that are not written are not given here.

Legend:
[1] = system: STAT3; test: Immunoblot of phosphotyrosine 705 of STAT3 in F11 cells; format: cell-based; details: F11 cells, 15 min
Procedure: E) F11 cells were transfected with an indicated amount of pRNA-U6.1/Shuttle vector (empty), pRNA-U6.1/Shuttle-IL-6R siRNA, or pRNA-U6.1/Shuttle-LIFR siRNA. At 48 hrs after transfection, the cells were treated with 100 ng/ml IL-6, 100 ng/ml CNTF or 1 μM HNG at 37° for 15 min, and harvested. The results of immunoblot analysis using anti-phophoSTAT3 ([…]) antibody and anti-STAT3 antibody were shown in photos. A) F11 cells were added with an indicated amount of HN, HNG or HNA and harvested 15 min later for immunoblot analysis with antibodies recognizing phosphotyrosine 705 of STAT3 or STAT3. The results are shown in photos. B) F11 cells were transfected with 0.5 μg of pRNA-U1.6/Shuttle vector, pRNA-U6.1/Shuttle-WSX-1 siRNA, pRNA-U6.1/Shuttle-CNTF-R siRNA, both pRNA-U6.1/Shuttle-WSX-1 siRNA and pRNA-U6.1/Shuttle-CNTF-R siRNA (0.5 μg each), or pRNA-U6.1/Shuttle-FPR2 siRNA. The total amount of vectors was adjusted to be 1.0 μg by including a backbone vector. […] The results are shown in photos. Cell lysates (10-20 μg/lane) or pulled-down precipitates were subject to SDS-PAGE, and the proteins separated on the gel were transferred onto polyvinylidene difluoride membranes as described (Hashimoto et al, 2000). Visualization of the immunoreactive protein bands was performed by ECL (Amersham Pharmacia Biotech, Uppsala, Sweden).

[2] = system: F11 cells; test: Neuronal cell death of F11 cells induced by overexpression of FAD genes (V642I-APP, M146L-PS1), WST-8 / Trypan blue; format: cell-based
Procedure: D) F11 cells were transfected with 0.5 μg of the pcDNA3 vector or pcDNA3-V642I-APP in association with 0.5 μg of the pEFBos vector or pEFBos-wild-type human gp130 (gp130wt). At 24 hr after transfection, the cells were added with 1 μg of neutralizing anti-mouse gp130 antibody. Cell mortality (left panel) and cell viability (right panel) were determined by Trypan blue exclusion assay and WST-8 assay at 72 hr after transfection. Below are shown the results of the expression of V642I-APP, and human gp130wt, which were confirmed by immunoblot analysis (photos).
B) F11 cells were transfected with 0.5 μg of the pcDNA3 vector or pcDNA3-V642I-APP in association with pRNA-U6.1/Shuttle vector (NO), pRNA-U6.1/Shuttle-siWSX-1 (W), pRNA-U6.1/Shuttle-siCNTF-R (C), or pRNA-U6.1/Shuttle-siFPR-2 (F) (Hashimoto et al. 2005). At 24 hrs after transfection, the cells were added with or without 10 nM of HNG. At 72 hrs after transfection, the cells were harvested for WST-8 assays. […]
F11 cells were transfected with pcDNA3 vector or pcDNA3-V642I-APP. […] The expression of V642I-APP determined by immunoblot analysis was shown below in a photo. […]
The transfection procedures were as described (Hashimoto et al, 2000, 2001a, 2003). […] Transfection efficiency in these protocols has been determined to be invariably around 70%. […]

[3] = system: primary cortical neurons (PCNs); test: Aβ neurotoxicity in primary cortical neurons, WST-8 / Calcein / LDH; format: cell-based, mouse; details: PCN, 10 μM Aβ (1-43)
Procedure: B) PCNs were incubated with 25 μM Aβ (upper) in the presence of 10 μg of recombinant soluble human gp130 (lower “+”) or BSA (lower “−”). Cell viability was determined by WST-8 assay (upper) or Calcein fluorescence assay (lower) at 72 hr after the onset of treatment with Aβ.
C) PCNs were incubated with 25 μM Aβ (1-43) in the presence of 1 μg of neutralizing anti-mouse gp130 antibody (RX435) or control IgG. Cell viability and cell mortality were determined by Calcein fluorescence (left panel) and LDH assays (right panel), respectively, at 72 hr after the onset of treatment with Aβ (1-43).
[…] At 72 hr after incubation, the cells were harvested for WST-8 assays or/and Calcein fluorescence assays to show cell viability.
B) The soluble IL-6 receptor-α (sIL-6R) or the soluble CNTF-R (100 ng/ml) were added to the cells as in the above A), followed by the stimulation with its ligand, IL-6 or CNTF (100 ng/ml), respectively to show the effects on the neuronal cell death due to Aβ. The right and left graphs show the cell viabilities determined by WST-8 assays and Calcein fluorescence assays, respectively.
C) The neutralizing antibodies (1 μg) for the mouse gp130, mouse LIFR, mouse IL-11R and rat CNTF-R were added as in the above A), and cell viability was determined by Calcein fluorescence assays after 72 hours.
WST-8 assay was performed at 72 hrs after the treatment.
The primary culture of mouse cortical neurons was prepared as described previously (Sudo et al., 2000). Briefly, primary cortical neurons, obtained from embryonic day 14 (E14) ICR mice were seeded in poly-L-lysine-coated 96 well plates (Sumitomo Bakelite) at 2.5 or 5.0×10^4 cells/well in Neuron Medium (Sumitomo Bakelite) (Hashimoto et al., 2003; Niikura et al., 2004). Purity of neurons by this method was >98%. After 3 days, the culture medium was replaced with DMEM with N2 supplement. On the fourth day in vitro, 25 μM of Aβ (1-42) was added in association with indicated concentrations of HN or cytokines in the presence or the absence of soluble cytokine receptors or neutralizing antibodies. At 72 hrs after the onset of treatment, cell viability was assessed by WST-8 assay and/or Calcein fluorescence assay and cell mortality was assessed by the Trypan blue exclusion assay and LDH assay (Hashimoto et al, 2000, 2001 a b, 2003).

[4] = target: T1, myc-tagged mouse CREME9 (mouse, UniProt Q9Z2L7 1-442); test: immunofluorescence-based HN binding assay (1) on F11 cells overexpressing CREME9 and human gp130
T1 construct: whole, on cells; Methods say mouse CREME9; Co-expressed with human gp130 in F11 cells; also called CRL4; pEF-mycHis CREME9; not shown: myc-His tag
T1 sequence (looked up): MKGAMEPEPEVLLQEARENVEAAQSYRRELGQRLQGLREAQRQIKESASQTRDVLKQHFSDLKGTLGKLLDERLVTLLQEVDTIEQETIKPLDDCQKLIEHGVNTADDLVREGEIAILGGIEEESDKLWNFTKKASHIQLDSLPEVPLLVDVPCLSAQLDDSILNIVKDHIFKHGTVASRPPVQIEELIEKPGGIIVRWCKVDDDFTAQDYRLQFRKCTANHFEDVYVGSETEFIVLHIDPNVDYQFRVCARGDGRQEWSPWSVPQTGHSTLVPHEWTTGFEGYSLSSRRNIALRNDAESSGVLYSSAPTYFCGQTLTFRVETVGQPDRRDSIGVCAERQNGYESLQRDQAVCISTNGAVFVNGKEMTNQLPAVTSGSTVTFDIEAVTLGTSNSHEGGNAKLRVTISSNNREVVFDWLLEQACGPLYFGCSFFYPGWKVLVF
Procedure: (§1) B) F11 cells were transfected with 0.5 µg of pEF-myc His human CREME9 or pEF-mycHis human WSX-1 in association with 0.5 µg of pCAG-human gp130. […] Fluorescence signals were detected with a laser-scanning, confocal microscope LSM (Carl Zeiss, Germany) (right panels).
(§2) F11 cells (7×10^4/well in 6-well plates) were replated into 96-well plates (7×10^3 cells/well) at 24 hrs after transfection with indicated amounts of the plasmids encoding mycHis-WSX or V5-CNTF-R, and with PCAG-human gp130 if required. […] After 6 hrs incubation, they were fixed with 4% paraformaldehyde in PBS for 30 min. After washing with PBS, cells were stained with FITC-conjugated avidin (Molecularprobe, Eugene, Oreg., USA). Immunofluorescence intensity was measured (excitation=485 nm, emission=535 nm) with a spectrofluorometer (Wallac1420 ARVOsx Multi Label Counter). Immunohistochemical analysis was done with a laser-scanning, confocal microscope LSM (Carl Zeiss, Germany).

[5] = target: T2, Humanin receptor (HNR) overexpressed in F11 cells: human CNTF-R/WSX-1/gp130 (human, UniProt P26992 23-342; Q6UWB1 33-636; P40189 23-918); test: cold competitor in binding assay (2), F11 cells transfected with human CNTF-R/WSX-1/gp130
T2 construct: whole, on cells; The three human subunits co-transfected into F11 cells, which also carry the endogenous receptor; also called both the CNTF receptor and WSX-1; not shown: C-terminal V5 tag; C-terminal myc-His tag
Procedure: A) F11 cells were seeded on 96-well plates coated with poly-L-lysine (7 ×10^3 cells/well). […] On the other hand, F11 cells were transfected with 0.5 μg of pcDNA3.1/GS-human CNTF-R, pEF1/MycHis-human WSX-1, and 1.0 μg of pCAG-human gp130. At 24 hrs after the transfection, the cells were re-seeded on 96-well plates coated with poly-L-lysine (7 ×10^3 cells/well).
as §2

[6] = target: T3, C-terminally myc-tagged human WSX-1 (mycHis-WSX-1) (human, UniProt Q6UWB1 33-636); test: cold competitor (10 µM) in binding assay (1), F11 cells expressing human WSX-1 and gp130
T3 construct: whole, on cells; in the pull-down and co-immunoprecipitation it stood in cell lysates; also called myc-WSX-1; IL-27 receptor; not shown: C-terminal myc-His tag of the pEF-mycHis vector
T3 sequence (looked up): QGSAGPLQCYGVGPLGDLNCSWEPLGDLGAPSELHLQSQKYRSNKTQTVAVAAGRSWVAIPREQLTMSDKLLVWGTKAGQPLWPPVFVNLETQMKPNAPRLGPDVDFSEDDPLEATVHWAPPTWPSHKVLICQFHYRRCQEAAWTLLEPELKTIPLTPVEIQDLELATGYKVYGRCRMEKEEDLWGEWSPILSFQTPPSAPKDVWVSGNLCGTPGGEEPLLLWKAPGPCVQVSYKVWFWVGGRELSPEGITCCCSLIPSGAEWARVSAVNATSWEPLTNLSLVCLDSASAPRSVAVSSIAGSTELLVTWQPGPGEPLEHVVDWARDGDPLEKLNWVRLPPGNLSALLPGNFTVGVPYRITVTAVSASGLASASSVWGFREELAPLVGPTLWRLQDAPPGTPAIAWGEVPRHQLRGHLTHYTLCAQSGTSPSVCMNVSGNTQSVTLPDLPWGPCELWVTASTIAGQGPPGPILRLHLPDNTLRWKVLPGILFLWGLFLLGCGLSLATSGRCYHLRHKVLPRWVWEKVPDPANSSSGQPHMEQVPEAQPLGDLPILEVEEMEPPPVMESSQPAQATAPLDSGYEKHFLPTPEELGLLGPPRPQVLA
Procedure: as §1, §2

T2 sequence (P26992 23-342, chain 1 of 2): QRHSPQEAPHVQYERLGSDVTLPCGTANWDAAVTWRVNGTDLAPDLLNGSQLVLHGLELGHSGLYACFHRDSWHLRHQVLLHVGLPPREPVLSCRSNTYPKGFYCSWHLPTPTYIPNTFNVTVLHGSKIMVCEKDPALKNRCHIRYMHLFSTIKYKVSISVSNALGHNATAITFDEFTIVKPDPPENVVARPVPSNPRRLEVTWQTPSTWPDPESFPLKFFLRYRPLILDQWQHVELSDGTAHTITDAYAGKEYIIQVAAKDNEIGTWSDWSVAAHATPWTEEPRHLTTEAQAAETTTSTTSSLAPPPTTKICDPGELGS
T2 sequence (P40189 23-918, chain 3 of 2): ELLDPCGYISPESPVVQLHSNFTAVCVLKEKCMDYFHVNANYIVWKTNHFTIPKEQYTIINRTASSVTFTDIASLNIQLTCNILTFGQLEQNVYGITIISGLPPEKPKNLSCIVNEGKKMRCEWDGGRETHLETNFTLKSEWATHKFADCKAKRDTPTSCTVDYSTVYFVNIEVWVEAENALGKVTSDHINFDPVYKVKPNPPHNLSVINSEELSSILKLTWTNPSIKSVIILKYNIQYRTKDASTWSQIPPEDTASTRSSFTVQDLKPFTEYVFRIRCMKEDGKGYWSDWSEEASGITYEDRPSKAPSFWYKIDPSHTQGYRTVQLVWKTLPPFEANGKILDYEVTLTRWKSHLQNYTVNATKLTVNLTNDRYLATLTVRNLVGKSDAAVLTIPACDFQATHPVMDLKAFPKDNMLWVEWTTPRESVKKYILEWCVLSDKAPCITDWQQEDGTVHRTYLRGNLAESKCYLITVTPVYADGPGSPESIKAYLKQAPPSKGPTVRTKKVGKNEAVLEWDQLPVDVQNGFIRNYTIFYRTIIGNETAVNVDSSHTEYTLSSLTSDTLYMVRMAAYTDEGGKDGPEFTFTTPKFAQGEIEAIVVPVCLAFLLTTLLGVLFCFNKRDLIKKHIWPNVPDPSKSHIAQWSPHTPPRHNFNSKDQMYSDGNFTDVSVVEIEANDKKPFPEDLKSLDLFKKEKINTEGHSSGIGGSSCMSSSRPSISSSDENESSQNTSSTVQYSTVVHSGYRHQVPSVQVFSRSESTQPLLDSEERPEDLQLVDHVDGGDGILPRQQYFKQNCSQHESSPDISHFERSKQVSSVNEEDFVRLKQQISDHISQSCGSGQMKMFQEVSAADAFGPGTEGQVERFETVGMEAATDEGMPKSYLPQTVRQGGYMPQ

B1: IL-27: IL-27 (IL-27p28/EBV-induced gene 3), IL-6/IL-12 family cytokine binding to WSX-1/gp130 (protein)
chain 1: FPRPPGRPQLSLQELRREFTVSLHLARKLLSEVRGQAHRFAESHLPGVNLYLLPLGEQLPDVSLTFQAWRRLSDPERLCFISTTLQPFHALLGGLGTQGRWTNMERMQLWAMRLDLRDLQRHLRFQVLAAGFNLPEEEEEEEEEEEEERKGLLPGALGSALQGPAQVSWPQLLSTYRLLHSLELVLSRAVRELLLLSKAGHSVWPLGFPTLSPQP
chain 2: RKGPPAALTLPRVQCRASRYPIAVDCSWTLPPAPNSTSPVSFIATYRLGMAARGHSWPCLQQTPTSTSCTITDVQLFSMAPYVLNVTAVHPWGSSSSFVPFITEHIIKPDPPEGVRLSPLAERQLQVQWEPPGSWPFPEIFSLKYWIRYKRQGAARFHRVGPIEATSFILRAVRPRARYYVQVAAQDLTDYGELSDWSLPATATMSLGK
In the case of B1, the “phosphorylation of tyrosine 705 of STAT3” value [1] is reported as “increased”, the “concentration range showing HN-like effect (activity)” value ([2]; WST-8) is reported as 1 to 10 µM and the “concentration range suppressing the HN effect” value ([2]; given with HNG) is reported as at most 100 nM. The “effect on the HN effect” value ([3]; 10 nM HNG) was “suppressed the HN effect” and the HN-like effect ([3]; higher concentration range) was “had the HN-like effect”.

B2: biotin-labeled HNG-FLAG (peptide)
peptide: MAPRGFSCLLLLTGEIDLPVKRRA
modifications: also: biotin label, position not given here, FLAG tag, sequence and position not given here
notes: the identity is therefore uncertain; not shown: FLAG tag
B2: no binding (tested: 100 nM) [4].

MAPRGFSCLLLLTGEIDLPVKRRA (also called S14G-HN) [S14G-Humanin (HNG)]: binds [5]; binds [6].
